Results on eleven substances are retold here after patent US12097252B2, “Formulation of a peptide vaccine” (priority 2016, dated 2024).

This series is described as follows: In-use chemical stability of vaccine emulsions by UPLC/MS after extraction of peptides. Format: physicochemical. The note with it: for Related substances (≥0.05%) [Area %]: peak in reconstituted PRAME-DP-5P; for Peptides and related substances (≥0.05%) [Area %]: peak in reconstituted P53-DP-5P. Here is the method: For samples showing complete dissolution, an emulsion stability of >2 hours, and a chemical stability of the Drug Product solutions (without additional dilution) of >2 hours, the in-use chemical stability of the vaccine emulsions with Montanide ISA 51 VG was monitored with UPLC/MS. For analysis of chemical stability of the reconstituted and emulsified Drug Products, samples were analyzed at various time points, at least up to 2 hours after dissolution. UPLC/MS analysis was performed according to the method describe above for chemical stability of the Drug Product solution, using an extra sample preparation step for extraction of the peptides from the vaccine emulsion. For sample preparation of emulsified products, the following steps were applied: • Take 300 μL Reconstitution Solution and add this to a 15 mL Greiner tube • Add 100 μL heptane • Add 200 μL of the Drug Product emulsion. Pipet the solution up and down three times. • Vortex the mixture for 30 seconds • Centrifuge the mixture for 5 minutes at 4400 rpm to obtain a two-phase system • With a 20-200 μL pipette, take a 100 μL sample from the bottom layer and transfer to a total recovery UPLC vial. • Analyze with UPLC/UV/MS according to the method described for chemical stability of the Drug Product solutions. Results Solvent Screening for Reconstitution and Emulsification
Analysis of chemical stability was performed by UPLC-MS as described in Example 1, at the section describing methods for analysis of in-use chemical stability of HPV-DP-6P and HPV-DP-7P vaccine emulsions including extraction of the peptides from the vaccine emulsion.
Purity of the Drug Product at different time points was calculated as follows: Purity (%)=100%−Sum of impurities≥0.05% area

Bridge positions count the residues as written; N and C are the ends. Ends that are not written are not given here. Bounds are passed on as bounds.

Turning to “SEQ ID NO 166: PRAME-derived peptide, component of PRAME DP-5P (SYEDIHGTLHLERLAYLHARLRELLCELGRPSMV)”, the “Related substances (≥0.05%) [Area %]” value reads like this: (in-use storage t = 0 h) 13.49 Area %; (in-use storage t = 1 h) 14.15 Area %; (in-use storage t = 2 h) 13.81 Area %; (in-use storage t = 3 h) 13.59 Area %.
As to “SEQ ID NO 191: P53-derived synthetic long peptide, component of P53 DP-5P (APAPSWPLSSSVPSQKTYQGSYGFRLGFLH)”, the “Peptides and related substances (≥0.05%) [Area %]” value (in-use storage t = 0 h) is 30.37 Area %; the “Peptides and related substances (≥0.05%) [Area %]” value (in-use storage t = 1 h) is reported as 28.75 Area %; the “Peptides and related substances (≥0.05%) [Area %]” value (in-use storage t = 2 h) came out at 28.81 Area %; the “Peptides and related substances (≥0.05%) [Area %]” value (in-use storage t = 3 h) was 28.81 Area %.
In the case of “SEQ ID NO 155: PRAME-derived peptide, component of PRAME DP-5P (WTVWSGNRASLYSFPEPEAAQPMTKKRKVDGLST)”, the “Related substances (≥0.05%) [Area %]” value runs as follows: (in-use storage t = 0 h) 23.35 Area %; (in-use storage t = 1 h) 22.85 Area %; (in-use storage t = 2 h) 22.65 Area %; (in-use storage t = 3 h) 22.62 Area %.
Consider “SEQ ID NO 194: P53-derived synthetic long peptide, component of P53 DP-5P (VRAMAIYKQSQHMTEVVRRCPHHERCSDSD)”, for which the “Peptides and related substances (≥0.05%) [Area %]” value reads like this: (in-use storage t = 0 h) 13.00 Area %; (in-use storage t = 1 h) 12.02 Area %; (in-use storage t = 2 h) 11.87 Area %; (in-use storage t = 3 h) 11.63 Area %.
With “SEQ ID NO 203 intramolecular disulfide: related substance: intramolecular disulfide of the peptide set forth in SEQ ID NO: 203 (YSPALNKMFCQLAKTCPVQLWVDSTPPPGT; disulfide 10-16 (inferred))”, the “Peptides and related substances (≥0.05%) [Area %]” value is, setting by setting: (in-use storage t = 0 h) “<”; (in-use storage t = 1 h) 1.05 Area %; (in-use storage t = 2 h) 1.54 Area %; (in-use storage t = 3 h) 1.87 Area %.
On to “SEQ ID NO 156: PRAME-derived peptide, component of PRAME DP-5P (IPVEVLVDLFLKEGACDELFSYLIEKVKRKKNVLR)”, for which the “Related substances (≥0.05%) [Area %]” value stood at 10.56 Area % (in-use storage t = 0 h), 10.52 Area % (in-use storage t = 1 h), 10.17 Area % (in-use storage t = 2 h) and 9.98 Area % (in-use storage t = 3 h).
The matching figures for “SEQ ID NO 153: PRAME-derived peptide, component of PRAME DP-5P (LETFKAVLDGLDVLLAQEVRPRRWKLQVLDLRK)”: 21.89 Area %, 22.70 Area %, 22.51 Area % and 22.59 Area %.
With “SEQ ID NO 201: P53-derived synthetic long peptide, component of P53 DP-5P (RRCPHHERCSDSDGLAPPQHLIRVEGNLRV)”, the “Peptides and related substances (≥0.05%) [Area %]” value came out at 12.43 Area % (in-use storage t = 0 h), 11.73 Area % (in-use storage t = 1 h), 11.72 Area % (in-use storage t = 2 h) and 11.60 Area % (in-use storage t = 3 h).
In the case of “SEQ ID NO 203: P53-derived synthetic long peptide, component of P53 DP-5P (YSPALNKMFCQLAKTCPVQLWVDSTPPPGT)”, the “Peptides and related substances (≥0.05%) [Area %]” value came to 13.73 Area % (in-use storage t = 0 h), 16.73 Area % (in-use storage t = 1 h), 16.21 Area % (in-use storage t = 2 h) and 15.56 Area % (in-use storage t = 3 h).
The matching figures for “SEQ ID NO 193: P53-derived synthetic long peptide, component of P53 DP-5P (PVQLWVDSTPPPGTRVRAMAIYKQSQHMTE)”: 23.90 Area %, 22.38 Area %, 22.31 Area % and 22.19 Area %.
Consider “SEQ ID NO 160: PRAME-derived peptide, component of PRAME DP-5P (LRRLLLSHIHASSYISPEKEEQYIAQFTSQFLS)”, for which the “Related substances (≥0.05%) [Area %]” value reads like this: (in-use storage t = 0 h) 13.61 Area %; (in-use storage t = 1 h) 13.49 Area %; (in-use storage t = 2 h) 13.34 Area %; (in-use storage t = 3 h) 13.40 Area %.
